Measurements from CN117858904A (dated 2024).

Key:
[1] = target: T1, 人PD-L1抗原 (human PD-L1 antigen) (human, UniProt Q9NZQ7 19-238, limits assumed); assay: BLI (Octet Red384), as in Example 3, human PD-L1 antigen on AR2G sensor, antibody as analyte, mean of three measurements
T1 construct: also called 专有PD-L1抗原

[2] = target: T2, 食蟹猴CD47抗原 cynoCD47(ARCO), Cynomolgus/Rhesus CD47 protein, Fc Tag, cat. CD7-C5252 (cynomolgus monkey / rhesus monkey); assay: BLI (Octet Red384), as in Example 3, cynoCD47-Fc on AR2G sensor, antibody as analyte, mean of three measurements
T2 construct: Commercial protein

[3] = target: 人CD47抗原 CD47-FcLama (human CD47 antigen) (human, UniProt Q08722 19-139); assay: BLI (Octet Red384), CD47-FcLama covalently on AR2G sensor, antibody as analyte (68.9, 34.4, 17.2 nM), 1:1 global fit, mean of three measurements
Sequence of 人CD47抗原 CD47-FcLama (human CD47 antigen) (Q08722 19-139): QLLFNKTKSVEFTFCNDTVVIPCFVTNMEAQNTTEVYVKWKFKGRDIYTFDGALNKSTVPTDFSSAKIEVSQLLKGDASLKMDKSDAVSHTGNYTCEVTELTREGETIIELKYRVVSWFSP

T1 sequence (Q9NZQ7 19-238 limits assumed): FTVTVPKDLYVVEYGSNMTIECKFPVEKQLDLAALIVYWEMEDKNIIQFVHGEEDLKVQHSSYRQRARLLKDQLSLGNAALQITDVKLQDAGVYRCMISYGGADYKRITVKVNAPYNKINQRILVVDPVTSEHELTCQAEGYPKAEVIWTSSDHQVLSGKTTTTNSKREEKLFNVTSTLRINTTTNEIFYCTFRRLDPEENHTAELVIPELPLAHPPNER

B1: 双特异性抗体09-001 (bispecific antibody 09-001, binds CD47 and PD-L1, common light chain) (bispecific antibody, human IgG1, lambda, L234A L235A)
heavy 1: not shown
light: QTVVTQEPSLSVSPGGTVTLTCGLSSGTVTAINYPGWYQQTPGQAPRTLIYNTNTRHSGVPDRFSGSISGNKAALTITGAQAEDEADYYCALYMGNGGHMFGGGTKLTVLGQPKAAPSVTLFPPSSEELQANKATLVCLISDFYPGAVTVAWKADSSPVKAGVETTTPSKQSNNKYAASSYLSLTPEQWKSHRSYSCQVTHEGSTVEKTVAPTECS
heavy 2: EVQLVESGGGVVRPGGSLRLSCAASGFTFDDYAMSWVRQAPGKGLEWVSDISWSGSNTNYADSVKGRFTISRDNAKNSLYLQMNSLRAEDTALYHCARAPLLLAMTFGVGSWGQGTLVTVSSASTKGPSVFPLAPSSKSTSGGTAALGCLVKDYFPEPVTVSWNSGALTSGVHTFPAVLQSSGLYSLSSVVTVPSSSLGTQTYICNVNHKPSNTKVDKKVEPKSCDGPGGTCPPCPAPEAAGGPSVFLFPPKPKDTLMISRTPEVTCVVVDVSHEDPEVKFNWYVDGVEVHNAKTKPREEQYNSTYRVVSVLTVLHQDWLNGKEYKCKVSNKALPAPIEKTISKAKGQPREPQVCTLPPSREEMTKNQVSLSCAVKGFYPSDIAVEWESNGQPENNYKTTPPVLDSDGSFFLVSKLTVDKSRWQQGNVFSCSVMHEALHNHYTQKSLSLSPGK
With B1 the Kd [1] was 2.54 nM, the Kd [2] was 57 nM and the Kd [3] was 82.5 nM.
